Measurements reported in publication doi:10.1101/2020.09.19.304535.

Target: GmPUB13(252-630), purified protein (soybean (Glycine max))
Assay: ITC

Avr1d, purified protein (ITC and gel filtration) (natural protein)
Kd: 89 nM
